# Experimental data reported in paper PMC3515076.
# T1: RIG-I (ΔCARDs 1-238) (human, UniProt O95786 239-925, del1-238)
# T1 sequence: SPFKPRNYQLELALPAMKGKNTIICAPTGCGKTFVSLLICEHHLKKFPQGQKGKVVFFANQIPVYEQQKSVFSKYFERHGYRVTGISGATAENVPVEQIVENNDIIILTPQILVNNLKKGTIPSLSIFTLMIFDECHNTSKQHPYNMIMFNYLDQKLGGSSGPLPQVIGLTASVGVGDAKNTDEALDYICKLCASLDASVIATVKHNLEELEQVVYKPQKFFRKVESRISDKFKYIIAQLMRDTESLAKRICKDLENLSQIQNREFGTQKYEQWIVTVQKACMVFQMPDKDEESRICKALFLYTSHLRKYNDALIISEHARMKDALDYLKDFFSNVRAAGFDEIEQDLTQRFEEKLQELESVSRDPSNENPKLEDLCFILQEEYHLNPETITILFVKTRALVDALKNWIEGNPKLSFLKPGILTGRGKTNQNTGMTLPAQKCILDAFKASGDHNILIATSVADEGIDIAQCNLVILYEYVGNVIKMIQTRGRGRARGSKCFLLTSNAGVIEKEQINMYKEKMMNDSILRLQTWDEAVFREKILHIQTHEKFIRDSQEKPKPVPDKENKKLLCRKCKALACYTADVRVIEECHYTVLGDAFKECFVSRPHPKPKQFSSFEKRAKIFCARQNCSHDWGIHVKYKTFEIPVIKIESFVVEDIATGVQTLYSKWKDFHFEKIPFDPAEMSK
# Target: T1, RIG-I (ΔCARDs 1-238)
# Test: X-ray crystallography
binder,measurement,value
"GGCGCGGCUUCGGCCGCGCC (structured_RNA, 5' triphosphate) [5'ppp8L]",binding result,binds
